The nature of this data set: soluble on expression in E. coli; label from the status in PepcDB or PDB records.
For the sequence “MADYLLEIGLEEIPAHLVTESENQLIERIKNFFSDNLLDYKKIQTFSTPRRLAVLVHDLSNYSQSKDEELRGPSLKVAKDESGNWSRAAEGFARSQGTSPAEFDERDGYVYLNKHIEGVSAEEILKKIGIEVVEKMKFSTYMKWADFKLEYVRPIRWLVSLLDSKIVPFQILDVKADRFTRGHRFLSGGKISISEAGDYEETLNNAYVIVDAKVRKNSIRNQIRKIADTNDWNLHVDPDLLEEVNNIVEYPTAFAGVFDDKYLNLPEIVLTTSMRDNQRFFYVTNKQGKILPHFISVRNGDSNQIENVVKGNEKVLVARLEDAEFFFEEDQKHNIDFFMKKAERLVFHEKIGTMTEHMKRVEKIAALLANQLAFNDQEKKDLKRAANICKFDLTTAMVGEFAELQGTMAGIYAKIFGENQTVCQALSEQYLPTSSEGDLPKSKVGAMLALADKLDTLFSFFAAGIIPSGSNDPYGLRRAALGIVRIIGQQKWNFSVSKLLHSLKTAVDKHEDGFLIDFADTKEISRKVIEFFLDRIRQQSSDIRYDLLDASTGKVNEGIINY”, the “soluble on expression in E. coli” value is “not soluble”. Next, “MAEAPPVSGTFKFNTDAAEFIPQERKTSGLNCGTQRRLDSSRIGRRNYSSSPPCHLPRHIPYEDISAVHQHSYASGSKPKSPQGFFQSSNKSLKNHGLQNQPWQKARNEKHQNRNKKAQGLSEQTSDTSSLESVARSESGTNPREHSPSESEKEVVIADPRGAKPKKAAQLTYNYGRGPKAKGRLRSEWGNRMSPKSEDENTRPVAISHTDSSDASCRKPVVDPCVCRRNEQRRYPQKRPPWEVEGARPRPGRNPPKQESQRHINAGPKTNMSPIPKDNLRERPTKSACDTGNLAVVSKSSRRVNQEKTAVRRQDPQVLSPFPRGKQNHMLKNVETHTGSLIEQLTTEKYECMVCCELVQVTAPVWSCQSCFHVFHLNCIKKWARSPASHADGQSGWRCPACQNVSAHVPNTYTCFCGKVKNPEWSRNEIPHSCGEVCRKKQPGQDCPHSCNLLCHPGPCPPCPAFTTKTCECGRTRHTVRCGQPVSVHCSNACENILNCGQHHCAELCHGGQCQPCRIILNQVCYCGSTSRDVLCGTDVGKSDGFGDFSCLKICGKDLKCGSHTCSQVCHPQPCQPCPRLPHLVRYCPCGQTPLSQLLEHGSNARKTCMDPVPSCGKVCGKPLACGSSDFIHTCEKLCHEGDCGPCSRTSVISCRCSFRTKELPCTSLKSEDATFMCDKRCNKKRLCGRHKCNEICCVDKEHKCPLICGRKLRCGLHRCEEPCHRGNCQTCWQASFDELTCHCGASVIYPPVPCGTRPPECTQTCARIHECDHPVYHSCHSEEKCPPCTFLTQKWCMGKHEELTIKKLWTFKETLDF”: “soluble”; “MAEDGPQKQQLDMPLVLDQDLTKQMRLRVESLKQRGEKKQDGEKLLRPAESVYRLDFIQQQKLQFDHWNVVLDKPGKVTITGTSQNWTPDLTNLMTRQLLDPAAIFWRKEDSDAMDWNEADALEFGERLSDLAKIRKVMYFLITFGEGVEPANLKASVVFNQL”: “soluble”.

With “MAEEKVKDEAMQIMGMFQILPRLVVFDLDYTLWPFYCECRSKREMPSMYPQAKGILSALKEKGIEMAIASRSPTSDIANTFLDKLNIKPMFVAKVSKMGVTSILVGDGVTLGAFRQGLTEFTQNHNSIEKNKQVWRDKYSGKPTSSETDKD”, the “soluble on expression in E. coli” value is reported as “soluble”. Next, “MAEETQTVETVEEQVVPEAKQPQDEKKYTDADVDAIIDKKFAKWKSEQEAEKSEAKKMAKMNEKEKADYEKQKLLDELQELKNDKTRNELTAVARQMFAESEINVNDDVLGLVVTLDAEQTKANVTTLANAFAKVIADDRKALVRQTTPSTGGGLSKQTNYGANLASKAAQQSTKLF”: “not soluble”; “MAEFRIAQDVVARENDRRASALKEDYEALGANLARRGVDIEAVTAKVEKFFVAVPSWGVGTGGTRFARFPGTGEPRGIFDKLDDCAVIQQLTRATPNVSLHIPWDKADPKELKARGDALGLGFDAMNSNTFSDAPGQAHSYKYGSLSHTNAATRAQAVEHNLECIEIGKAIGSKALTVWIGDGSNFPGQSNFTRAFERYLSAMAEIYKGLPDDWKLFSEHKMYEPAFYSTVVQDWGTNYLIAQTLGPKAQCLVDLGHHAPNTNIEMIVARLIQFGKLGGFHFNDSKYGDDDLDAGAIEPYRLFLVFNELVDAEARGVKGFHPAHMIDQKHNVTDPIESLINSANEIRRAYAQALLVDRAALSGYQEDNDALMATETLKRAYRTDVEPILAEARRRTGGAVDPVATYRASGYRARVAAERPASVAGGGGIIGSHHHHHH”: “soluble”. For the sequence “MAEHVEIVEMAARDGLQNEKRFVPTADKIALINRLSDCGYARIEATSFVSPKWVPQLADSREVMAGIRRADGVRYSVLVPNMKGYEAAAAAHADEIAVFISASEGFSKANINCTIAESIERLSPVIGAAINDGLAIRGYVSCVVECPYDGPVTPQAVASVTEQLFSLGCHEVSLGDTIGRGTPDTVAAMLDAVLAIAPAHSLAGHYHDTGGRALDNIRVSLEKGLRVFDASVGGLGGSPFAPGAKGNVDTVAVVEMLHEMGFETGLDLDRLRSAGLFTQALRQDKAALEHHHHHH”, the “soluble on expression in E. coli” value is “soluble”.

Consider “MAEIDYKKVTGMIHSTESFGSVDGPGIRFIIFMQGCKMRCQYCHNPDTWEMETNNSKERTVEDVLKEALRYKHFWGKDGGITVSGGEAMLQIDFITALFIEAKKLGIHTTLDTCGFAYRATPEYHAILEKLLDVTDLVLLDLKEIDSEQHKIVTRQSNKNILQFARYLSDRGTPVWIRHVLVPGLTD”, for which the “soluble on expression in E. coli” value is listed as “not soluble”.

Regarding “MAEKAENLPSSSAEASEEPSPQTGPNVNQKPSILVLGMAGSGKTTFVQRLTAFLHARKTPPYVINLDPAVSKVPYPVNVDIRDTVKYKEVMKEFGMGPNGAIMTCLNLMCTRFDKVIELINKRSSDFSVCLLDTPGQIEAFTWSASGSIITDSLASSHPTVVMYIVDSARATNPTTFMSNMLYACSILYRTKLPFIVVFNKADIVKPTFALKWMQDFERFDEALEDARSSYMNDLSRSLSLVLDEFYCGLKTVCVSSATGEGFEDVMTAIDESVEAYKKEYVPMYEKVLAEKKLLDEEERKKRDEETLKGKAVHDLNKVANPDEFLESELNSKIDRIHLGGVDEENEEDAELERS”, the “soluble on expression in E. coli” value is recorded as “not soluble”.

As for “MAEKLSAHCHCGAVAFTVELSDGFNTVRRCNCSYCRMRGAVAVSSPRSGIEVVRGGDKLTEYRFNTGEAVHFFCSVCGIYTFHQRRSNPQQYGVNVACIDGVSPFDFP”, the “soluble on expression in E. coli” value is reported as “not soluble”. Consider “MAERRMFAKTIIDSDAFLDMPLSSQALYFHLAMRADDDGFINNPKKLQRMVGCGEDDLKLLMVKKFILVFESGVIVIKHWKIHNYIRSDRYKPTLYQEEKNQIVEKNSKAYTFKAESSVGGQPADYQRLPQESIVQSKLGQSQGSSSENDCLKMIYHFYEENGFGTLASKTSQDFKYWLQDFIQKGASQEEACQLILHALGIAVDRNKRNYGYVNAILKSWEQQNYLSVHEVLVNDKKQVLEHAPQMTEEYQELGF”, for which the “soluble on expression in E. coli” value is recorded as “not soluble”. Then “MAETHSLGTKILIKIIRLYQIMISPFIGARCRFVPTCSCYGIEALKTHGLLKGGWLTLKRVLKCHPLNAGGFDPVPPKTNNNDEKK”, with “not soluble”.

Take “MAFGWHSMHGSIIWFLQIAQLSTAISHDQNATAVHFLISNLFFLVSTGALWFELCAIFCDSSSSTSILSTSLLMLNYFSLKFSATGERHLVATNIAHIEAHTSIVGFMISLFTPLKETIITKYEMLVRT”: the “soluble on expression in E. coli” value is given as “soluble”. On to “MAFKPVSITGTRRQAGQALGKLARPLMATYLEQSTVWAALRPWRGHAYLEALAHEASQALPEIWDELEGLAEGLRMPLVDILLWNCRGDLLHKTSDGCTSIAWRGDEDARWIAHNEDGDPFLYGRCHMVDVRTDDAPGYISFYYPGSLPGHTFGANRAGLVQTINNVRIRQRHAGVPRMLLARAVLDCATLDDALAVLRDHPRAGGFHHTLGAAGEPRLYSVEASPAACSIGEVARGNGHANHLVHPGSEAIGQIVTDSSRSRQRHIENLMDHWQPPVDGARLVATLLDREGELPILRCGADDPDEENTLATALFEMRDGGLTLQVHDRRDQPALRVTVCPAALEHHHHHH”, for which the “soluble on expression in E. coli” value is listed as “not soluble”. Then “MAFLGYGAAAALGGALVYANLPTYLTIGAVAPTFAHLAAAKLVPIRGGPKEKEVVERNEQFTADSLFKKGPIMVMAVRRPGCMLCRREAAELHTLLPLLKEKGIELAAVVHETRGANEFKSWFSGGDVYLDTDRTFYGPNERWLPVWMGFLRFGTYSNVYKAKKAKVEGNMEGEGRLLGGVYLIANNDIVFTHLEKEWGDAADIKEVRAAVEKFSEKSK”, with “not soluble”. Then “MAFQLEMVTRETVVIRLFGELDHHAVEQIRAKISTAIFQGAVTTIIWNFERLSFMDSSGVGLVLGRMRELEAVAGRTILLNPSPTVRKVFQFSGLGPWMMDATEEEAIDRVRGIVNG”, with “soluble”; and “MAFRQPNTKELKVIRKALSYYGSGDFLSHYALLVKEGEKKEVYGVSKELYGVIGELNPHYAGVKIGEVGRRFRFSLEGTFWLLRNSRNRVWVNERGEMLFLYGRDIFAGSVERASEFGENSIVFVCNRFDDVLGIGRSRHSSDELSNLPEDKVFVENLVDRGEYLRHQKTYLSF”, with “not soluble”. Then “MAFSIMGILTIMEFLVYRDTRMKYEYEVDKDFTSKIRLNIDITVAMKCQYVGADVLDLAETMVTSAQGLAYQPVSLCSRTISNTSCGVSGKLWIQSTENVKVVTDAVSLVPNRLNSCSAGDI”, with “not soluble”; and “MAFVKPILLKSATCLLPRVLKLLFATLKINVGYAGEKLPDDQRGVMFAFWHGKMIAGWLLARRLYPKREISAVVSLSGDGQILSDTLDRLGFHLIRGSSSRGKEVVRRGIGVALSNGGVAAVTPDGPRGPHHRFKYGTLRLAAQHRTPVVFAEISYDNARRLKSWDRFEIPLPFSRVRVTLHVVQVPEFPTEEAFRAWADELSTGFDDALEHHHHHH”, with “not soluble”. In the case of “MAGASETYTHTLTDVPIDIKYDSDDYFISGYSYGADVYMSSVNRVKLDSEINEDTRKFKVVADLTNMKPGTHKVPLKVVNLPSGVNATVSPTTITVTMGKKKTKEFPLEHHHHHH”, the “soluble on expression in E. coli” value was “not soluble”. Next, “MAGDPMAEAGNKTQNQSATEVNASPLQPAEYFIYHNLMNDKGLIKTDFSDQPSYLSESLGLWMEFLLSKNDAPHFQDQYQHLTDSFLMSNHLVTWKIQNGQASGTNALIDDMRIMLSLDQAAAKWGRSDYAQTARDIGTSLKTYNMNNGFFTDFYDSQAASKDVTLSYVMPDALAVLKKNGIIDEETEQRNANVLYSAPLKNGFLPKTYSSETKEYTYDSEINLIDQLYAAWHLPEGDEKASVLADWIKQEFQKNGKLYGRYSAYTKEPAVQYESPSVYALAVLFLTKQHENSSVIKAIYDRMNDFEIHDPVKSYYGGYMSGTQTHSFDNLLPLLAERKLFNENIIQLEHHHHHH”: “soluble”; “MAGDPMGRQRGAGLGGGHDEREQTLNQMLVEMDGFSGNDGVIVIAATNRPDVLDPALTRPGRFDRQVVVGLPDVKGREQILKVHMRKVSVAQDVDAMTLARGTPGYSGADLANLVNEAALFAARVNKRTVTMLEFEKAKDKINMGPERRTMIMTDKQKESTAYHEAGHAIVGYLVPEHDPVHKVTIIPRGRALGVTFFLPEGDQISISQKQLESKLSTLYAGRLAEDLIYGEENISTGASNDIKVATNIARNMVTQWGFSEKLGPILYTEDEGEVFLGRSMAKAKHMSDETAHSIDEEVRAIVNRNYARAREILIDNMDILHAMKDALVKYETIEEEQIKQLMNREPVTPPSGWGEPKTQQAAYANSTTNDTKPESAVENTDDFNVAAALEHHHHHH”: “not soluble”.

Source of the values: the DeepSol protein solubility set.
